These results are taken from patent US20210147536A1 (MAB VENTURE BIOPHARM, published 2021).

The chains are these.
T1: human LAG-3 on the cell surface (human, UniProt P18627 23-525)
T1 construct: whole, on cells; also called cells expressing the human LAG-3
T1 sequence (looked up): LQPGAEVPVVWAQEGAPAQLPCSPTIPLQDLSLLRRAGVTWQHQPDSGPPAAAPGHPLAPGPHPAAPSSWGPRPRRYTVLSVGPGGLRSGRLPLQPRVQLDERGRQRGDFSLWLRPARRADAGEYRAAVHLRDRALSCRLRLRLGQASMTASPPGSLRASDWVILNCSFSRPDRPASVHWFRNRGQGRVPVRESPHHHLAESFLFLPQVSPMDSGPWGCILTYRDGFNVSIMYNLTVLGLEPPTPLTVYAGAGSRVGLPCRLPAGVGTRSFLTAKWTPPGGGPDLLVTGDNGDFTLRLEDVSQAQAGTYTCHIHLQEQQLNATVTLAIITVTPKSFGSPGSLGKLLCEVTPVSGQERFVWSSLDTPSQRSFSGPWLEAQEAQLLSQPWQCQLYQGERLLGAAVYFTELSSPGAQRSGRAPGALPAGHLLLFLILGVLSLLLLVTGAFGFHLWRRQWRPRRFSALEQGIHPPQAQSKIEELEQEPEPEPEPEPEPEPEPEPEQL

T2: human LAG-3-6*His tag recombinant fusion protein (human, UniProt P18627 23-450, biotin-labelled in panning and in Example 9)
T2 construct: Bought protein; also called hLAG-3-6*his tag recombinant protein; human LAG-3-his tag recombinant fusion protein
T2 sequence: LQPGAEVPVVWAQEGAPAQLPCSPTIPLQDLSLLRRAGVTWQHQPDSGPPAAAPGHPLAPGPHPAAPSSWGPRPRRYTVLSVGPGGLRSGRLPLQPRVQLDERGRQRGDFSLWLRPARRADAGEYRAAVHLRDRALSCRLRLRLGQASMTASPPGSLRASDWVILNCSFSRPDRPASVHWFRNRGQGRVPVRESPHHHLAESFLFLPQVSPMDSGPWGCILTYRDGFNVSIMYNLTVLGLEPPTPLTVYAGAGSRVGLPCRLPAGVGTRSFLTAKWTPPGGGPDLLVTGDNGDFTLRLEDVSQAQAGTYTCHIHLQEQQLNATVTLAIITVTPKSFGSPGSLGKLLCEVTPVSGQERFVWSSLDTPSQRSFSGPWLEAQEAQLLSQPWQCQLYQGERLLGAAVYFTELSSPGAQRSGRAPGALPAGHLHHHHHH

B1: MV705-3-VH-DD + DE-IgG4 (antibody, V domains shown)
VH: EVQLLESGAEVKKPGASVKVSCKASGYTFTSYGISWVRQAPGQGLEWMGWISAYNGNTNYAQKLQGRVTMTTDTSTSTAYMELRSLRSDDTAVYYCARDGWWELLRPDEAFDIWGQGTTVTVSS
VL: QLVLTQSPSVSVSPGQTASITCSGDKLGDKYAYWYQQKPGQAPVLVIYYDSDRPSGIPERFSGSNSGNTATLTISRVEAGDEADYYCQVWDSSSDQVVFGGGTQLTVLG
notes: human IgG4 S228P constant region, MV705-3 lambda light chain; also called 13365; 13365 (DD + DE)
B2: MV705-3-VH-ED + DE-IgG4 (antibody, V domains shown)
VH: B1 VH with D89E
VL: B1 VL
notes: human IgG4 S228P constant region, MV705-3 lambda light chain; also called 13564; 13564 (ED + DE)
B3: MV705-3-VH-DE + DD-IgG4 (antibody, V domains shown)
VH: B1 VH with D90E, E109D
VL: B1 VL
notes: human IgG4 S228P constant region, MV705-3 lambda light chain; also called 13380; 13380 (DE + DD)
B4: MV705-3-VH-ED + DD-IgG4 (antibody, V domains shown)
VH: B1 VH with D89E, E109D
VL: B1 VL
notes: human IgG4 S228P constant region, MV705-3 lambda light chain; also called 13381; 13381 (ED + DD)
B5: MV705-3-VH-DE + ED-IgG4 (antibody, V domains shown)
VH: B1 VH with D90E, D108E, E109D
VL: B1 VL
notes: human IgG4 S228P constant region, MV705-3 lambda light chain; also called 13563; 13563 (DE + ED)
B6: MV705-3-VH-DD + ED-IgG4 (antibody, V domains shown)
VH: B1 VH with D108E, E109D
VL: B1 VL
notes: human IgG4 S228P constant region, MV705-3 lambda light chain; also called 13386; 13386 (DD + ED)
B7: MV705-3-VH-DE + DE-IgG4 (antibody, V domains shown)
VH: B1 VH with D90E
VL: B1 VL
notes: human IgG4 S228P constant region, MV705-3 lambda light chain; also called 13565; 13565 (DE + DE)
B8: MV705-3-VH-ED + ED-IgG4 (antibody, V domains shown)
VH: B1 VH with D89E, D108E, E109D
VL: B1 VL
notes: human IgG4 S228P constant region, MV705-3 lambda light chain; also called 13616; 13616 (ED + ED)

Numbering of substitutions follows the chain as printed. Names may count otherwise. A value given as a limit tells only on which side of the number the result lay.

The first assay concerns the target T1, human LAG-3 on the cell surface. The assay can be described thus: flow cytometry on cells expressing the human LAG-3, PE anti-human IgG; N = 1. (In general: A flow cytometer gives signals particle by particle.)
Consider B1, for which the EC50 (commonly the concentration needed to bring the measured effect to its halfway point) is > 10 µg/mL.

On to B2, for which the EC50 is > 0.01 µg/mL.

The target in a further assay is T2, human LAG-3-6*His tag recombinant …. Nature of the assay: ELISA as in Example 4 (antibody coated, human LAG-3-6*His titrated); N = 3. On the technique in general: ELISA stands for enzyme-linked immunosorbent assay.
Regarding B3, the EC50 was 0.044 µg/mL.

Turning to B4, the EC50 came out at 0.044 µg/mL.

A further assay deals with T1, human LAG-3 on the cell surface. Nature of the assay: flow cytometry on cells expressing the human LAG-3, PE anti-human IgG; N = 4.
On to B3, for which the EC50 is 1.8 ng/mL.

Molecule B5 showed an EC50 of 4.7 ng/mL.

Consider B4, for which the EC50 amounted to 2.2 ng/mL.

Molecule B6 yielded an EC50 of 5.9 ng/mL.

Another assay deals with T2, human LAG-3-6*His tag recombinant …. Nature of the assay: ELISA as in Example 4 (antibody coated, human LAG-3-6*His titrated).
As for B1, the EC50 came to 1.29 µg/mL.

For B2, the EC50 amounted to 2.43 µg/mL.

For B5, the concentration for a half-maximal effect (EC50) stood at 0.21 µg/mL.

Regarding B7, the EC50 was 3.13 µg/mL.

Consider B6, for which the EC50 amounted to 0.15 µg/mL.

For the next assay, the target named is T1, human LAG-3 on the cell surface. The assay can be described thus: cell-based or functional assay.
For the molecule B3, the “EC50, ability to activate T cells in vitro (LAG3/NFAT Reporter-Jurkat)” value (“EC50, ability … (LAG3/NFAT Reporter-Jurkat)” below) is 0.05 µg/mL.

For the molecule B5, the “EC50, ability … (LAG3/NFAT Reporter-Jurkat)” value is > 30 µg/mL.

On to B8, for which the “EC50, ability … (LAG3/NFAT Reporter-Jurkat)” value is > 30 µg/mL.

In the case of B4, the “EC50, ability … (LAG3/NFAT Reporter-Jurkat)” value amounted to 0.1 µg/mL.

For the molecule B6, the “EC50, ability … (LAG3/NFAT Reporter-Jurkat)” value was > 30 µg/mL.

The target is the same in a further assay. Nature of the assay: flow cytometry on cells expressing the human LAG-3, PE anti-human IgG; N = 2.
With B7, the EC50 is > 10 ng/mL.

B8 yielded an EC50 of 5.1 ng/mL.

For another assay, the target named is T2, human LAG-3-6*His tag recombinant …. The assay can be described thus: ELISA as in Example 4 (antibody coated, human LAG-3-6*His titrated); N = 2.
Turning to B8, the EC50 was found to be 0.21 µg/mL.
